Experimental data from publication PMC5344674.

Experiments:
[1] = target: Orsay virus δ(1–66) (Orsay virus); assay: crystal structure; hanging-drop vapor diffusion at 20°C; SAD with SeMet crystals, refined against native data at 2.22 Å
[2] = target: Orsay virus mini-fusion protein CP-δ(215–485) (Orsay virus); assay: SEC; Superdex 200 gel filtration; elution buffer 50 mM Tris-HCl pH 7.5, 250 mM NaCl, 2-ME, 1 mM NaN3
[3] = target: Orsay virus full-length δ protein (Orsay virus); assay: native MS; direct infusion by nano-spray, 10ug/mL protein complex in 5% ACN, 0.1% FA, Orbitrap Fusion Lumos; non-denaturing conditions; intact pentamer
[4] = target: Orsay virus full-length δ protein (Orsay virus); assay: AUC; sedimentation velocity, 27.6 μM δ, 20°C, 30,000 rpm, 50 mM TRIS pH 7.5, 250 mM NaCl; PCSA-DS molar mass transformation

Orsay virus δ(1–66) (domain or fragment)
stoichiometry N [1]: 5

Orsay virus mini-fusion protein CP-δ(215–485) (domain or fragment)
stoichiometry N [2]: 5

Orsay virus full-length δ protein (natural protein)
stoichiometry N [3]: 5 | stoichiometry N [4]: 5
